Data taken from publication PMC6465249 (Cell Discovery, 2019).

Biological target: Recombinant hemagglutinin of H3N2 A/Texas/50/2012, ectodomain, monomeric (Influenza A virus A/Texas/50/2012 (H3N2), UniProt R4L1D1, strain)
Assay: SPR
Details: both partners purified

B1: AF4H1K1 Fab (Fab, V domains shown)
VH: QVQLVESGGGVVQPGTSLRLSCEASGFTSSAYAMHWVRQAPGKGLEWVAVITFDGGYQYYADSVKGRFTISRDISRNTLHLHMNSLRAEDTAVYYCARDPLTKLLPFDWVSGGYFDYWGQGTLVTVSS
VL: not shown
notes: also called H1 paired with K1
  Kd: 49 nM
